Data on 5 molecules can be found in article PMC7089606 (Journal of Molecular Biology, 2010).

The term Ki denotes the dissociation constant of the complex between target and ligand, obtained from inhibition or displacement. Read a low Ki as tighter binding. As usually defined, the Km is the concentration of substrate that gives half-maximal velocity. In general, kcat refers to the number of substrate molecules converted per active site and unit of time at saturation. As a reminder, the kcat/Km is the second-order rate constant that governs catalysis at low substrate concentration.

Data set [1] is described as follows: recombinant expression yield in P. pastoris. The following applies: glycan lost; control: wild type.
For data set [2], the target named is T1, DmCPD1Bs (D. melanogaster carboxypeptidase D variant 1B short) (Drosophila melanogaster, UniProt P42787).
T1 sequence (P42787 26-435 isoform P42787-7): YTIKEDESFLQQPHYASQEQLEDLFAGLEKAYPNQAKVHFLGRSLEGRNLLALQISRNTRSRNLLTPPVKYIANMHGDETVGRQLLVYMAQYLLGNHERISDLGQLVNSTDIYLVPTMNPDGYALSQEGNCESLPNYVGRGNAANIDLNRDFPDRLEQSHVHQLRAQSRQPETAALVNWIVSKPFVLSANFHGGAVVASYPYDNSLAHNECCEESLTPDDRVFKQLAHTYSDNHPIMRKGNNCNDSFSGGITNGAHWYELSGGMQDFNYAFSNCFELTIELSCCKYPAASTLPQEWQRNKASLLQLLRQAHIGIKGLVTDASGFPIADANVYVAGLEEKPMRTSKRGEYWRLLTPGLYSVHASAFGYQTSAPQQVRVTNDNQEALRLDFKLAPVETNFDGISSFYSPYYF
As to the kind of experiment: crystal structure at […] Å. The class given is biochemical.

Substrate in data set [3]: N=C(N)NCCC[C@H](NC(=O)CNC(=O)c1ccccc1)C(=O)O
As to the kind of experiment: purified protein. Particulars: Zn2+.

For the molecule “DmCPD1Bs (carboxypeptidase D variant 1B short, svr-PF): N133Q”, the expression_or_secretion entry in data set [1] is “decreases”.
`N=C(N)NCCSC(CC(=O)O)C(=O)O` (stereo not drawn) [GEMSA, 2-guanidinoethyl-mercaptosuccinic acid]: the affinity in data set [2], expressed as Ki, was 670 ± 80 nM.
On to “DmCPD1Bs (carboxypeptidase D variant 1B short, svr-PF): N269Q”, for which the expression_or_secretion entry in data set [1] was “decreases”.

B1: human CPB (hCPB) (Homo sapiens) (protein)
chain: ATGHSYEKYNKWETIEAWTQQVATENPALISRSVIGTTFEGRAIYLLKVGKAGQNKPAIFMDCGFHAREWISPAFCQWFVREAVRTYGREIQVTELLDKLDFYVLPVLNIDGYIYTWTKSRFWRKTRSTHTGSSCIGTDPNRNFDAGWCEIGASRNPCDETYCGPAAESEKETKALADFIRNKLSSIKAYLTIHSYSQMMIYPYSYAYKLGENNAELNALAKATVKELASLHGTKYTYGPGATTIYPAAGGSDDWAYDQGIRYSFTFELRDTGRYGFLLPESQIRATCEETFLAIKYVASYVLEHLY
As for B1, in data set [3], the Km was 485.3 ± 62.5 µM, the kcat came out at 254 ± 11.9 s⁻¹ and the catalytic efficiency (kcat/Km) came to 523000 M⁻¹ s⁻¹.

B2: DmCPD1Bs (D. melanogaster carboxypeptidase D variant 1B short) (Drosophila melanogaster) (protein)
chain: T1 sequence (P42787 26-435 isoform P42787-7)
On to B2, for which, in data set [3], the Km came out at 1112 ± 167 µM, the kcat came out at 38.8 ± 4.1 s⁻¹ and the kcat/Km was found to be 34900 M⁻¹ s⁻¹.
